Test results published in patent publication US20200262895A1 (Biogen, published 2020).
Residue numbers refer to the chain shown, from its start. In names and notes the source's numbering stands. Where two headings read alike, the source gives them in different places. Values belong to the binder of their own block, whether it stands above or below them.

Tests used:
[1] = target: T1, PHFTau (paired helical filaments containing pathologically phosphorylated tau filaments, extracted from AD … (human, UniProt P10636-8 1-441, limits assumed, pathologically phosphorylated (sites of the preparation not listed), aggregated filaments)); experiment: direct ELISA on coated PHFTau
T1 construct: Brain extract, not a single defined isoform; also called human PHF tau; pathologically modified PHFTau

[2] = target: T2, recombinant human tau, isoform Tau-F of 441 aa (hTau40) (human, UniProt P10636 1-758); experiment: direct ELISA on coated recombinant tau (rTau)
T2 construct: Bought from rPeptide (Bogart, GA, USA); coated on ELISA plates, blotted, or spotted as overlapping peptides; also called full-length tau; rTau

[3] = target: T2, recombinant human tau, isoform Tau-F of …; experiment: direct ELISA, hTau40 coated at 1 ug/ml
Protocol: (§1) The EC₅₀ values were estimated by a non-linear regression using GraphPad Prism software.
ELISA plates were coated with recombinant human tau (hTau40, 1 ug/ml), PHFTau (1:100) and control preparation (1:100), and incubated with varying antibody concentrations.

[4] = target: T2, recombinant human tau, isoform Tau-F of …; experiment: binding of CHO-produced antibody to recombinant tau; format not stated
[5] = target: T3, normal tau in wild type mouse brain (Wt) (mouse, UniProt P10637-2 1-430, limits assumed); experiment: immunohistochemistry on brain tissue sections
T3 construct: Control tissue in immunohistochemistry

[6] = target: T3, normal tau in wild type mouse brain (Wt); experiment: immunohistochemistry on brain tissue
[7] = target: T2, recombinant human tau, isoform Tau-F of …; experiment: ELISA on recombinant Tau, absorbance at 450 nm
[8] = target: T2, recombinant human tau, isoform Tau-F of …; experiment: ELISA on recombinant Tau, absorbance at 450 nm; remark: listed apart in the source
[9] = target: T2, recombinant human tau, isoform Tau-F of …; experiment: direct ELISA, hTau40 coated at 3 ug/ml
From the text: as §1

T2 sequence (P10636 other isoform, or with tags, fused parts or gaps limits assumed): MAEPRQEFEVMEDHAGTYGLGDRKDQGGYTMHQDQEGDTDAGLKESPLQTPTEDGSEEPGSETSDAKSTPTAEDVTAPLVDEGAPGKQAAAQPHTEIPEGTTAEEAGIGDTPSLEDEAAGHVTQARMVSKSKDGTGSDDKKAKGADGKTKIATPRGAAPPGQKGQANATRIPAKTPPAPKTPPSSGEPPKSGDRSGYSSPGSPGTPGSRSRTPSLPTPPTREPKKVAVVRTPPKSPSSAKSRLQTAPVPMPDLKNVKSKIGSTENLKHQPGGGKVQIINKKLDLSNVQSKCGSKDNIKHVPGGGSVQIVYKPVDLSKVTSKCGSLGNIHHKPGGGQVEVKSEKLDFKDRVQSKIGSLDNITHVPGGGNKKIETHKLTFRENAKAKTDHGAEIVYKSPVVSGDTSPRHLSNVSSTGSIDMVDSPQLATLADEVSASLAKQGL
T1 sequence (P10636 other isoform, or with tags, fused parts or gaps limits assumed): as above
T3 sequence (P10637 other isoform, or with tags, fused parts or gaps limits assumed): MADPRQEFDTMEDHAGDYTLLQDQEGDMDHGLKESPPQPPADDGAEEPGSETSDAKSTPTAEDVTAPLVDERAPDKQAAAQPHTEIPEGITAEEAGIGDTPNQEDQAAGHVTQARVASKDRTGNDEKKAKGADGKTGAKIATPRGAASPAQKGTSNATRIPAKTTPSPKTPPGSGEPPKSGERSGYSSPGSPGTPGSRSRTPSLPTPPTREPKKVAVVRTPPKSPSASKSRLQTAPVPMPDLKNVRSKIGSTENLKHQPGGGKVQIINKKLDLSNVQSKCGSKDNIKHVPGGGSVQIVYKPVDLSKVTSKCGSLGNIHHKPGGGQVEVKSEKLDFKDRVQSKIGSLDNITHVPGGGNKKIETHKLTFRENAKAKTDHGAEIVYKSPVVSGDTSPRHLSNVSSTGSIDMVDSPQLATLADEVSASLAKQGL

B3: chimeric NI-105.4E4(N30Q) (ch4E4(N30Q)), mouse IgG2a/lambda (antibody, V domains shown)
VH: EVQLVESGGGLVQPGGSLKLSCAASGFNFQISAIHWVRQASGKGLEWVGRIRSKSHNYATLYAASLKGRFTLSRDDSRNTAYLQMSSLQTEDMAVYYCTVLSANYDTFDYWGQGTLVTVSS
VL: SYELTQPPSVSVSPGQTARISCFGDTLPKQYTYWYQQKPGQAPVLVIYKDTERPSGIPERFSGSSSGTTVTLTISGVQAEDEADYYCLSADNSATWVFGGGTKVTVLG
notes: Only the heavy chain of ch4E4 was changed (Asn-30 to Gln)
- fold higher apparent binding affinity relative to the original, glycosylated antibody (ch4E4) [4]: ~4 fold

B4: recombinant human antibody NI-105.48E5 (germlined) (antibody, V domains shown)
VH: EVQLVESGGGLVQPGGSLKLSCAASGFTFSGSAMHWVRQASGKGLEWVGRIRSKANSYATAYAASVKGRFTISRDDSKNTAYLQMNSLKTEDTAVYYCTSPTVTTEVWGQGTLVTVSS
VL: not shown
notes: Complete recombinant human IgG1 by the methods
- binding result [5]: no binding

B6: recombinant human antibody NI-105.6C5 (germlined) (antibody, human IgG1, V domains shown)
VH: QVQLVESGGGVVQPGRSLRVSCAASGFTFSSYDMHWVRQAPGKGLEWVAVIWFDGSNEFYADSVKGRFTISRDNSKNTLFLQMNSLRAEDTAVYYCARDLGASVTTSNAENFHHWGQGTLVTVSS
VL: SYELTQPPSVSVSPGQTARITCSGDALPKRYVYWYQQKSGQAPVLVIYEDSKRPSGIPETFSGSSSGTMATLTISGAQVEDEADYYCYSTDSNGHHWVFGGGTKLTVL
- binding result [6]: no binding
- EC50 [1]: 0.04 nM
- EC50 [2]: 0.033 nM

B7: ch17C1(N31Q) mIgG2a (antibody)
heavy: EVQLVQSGAEVKKPGESLKISCKAFGYSFTNFWIGWVRQVPGKGLEWVGIIYPGDSDTRYSPSFQGQVTISADKSIDTAYLQWGHLKASDSAMYFCARRGFWTGSQIEYWGQGTQVTVSSAKTTAPSVYPLAPVCGDTTGSSVTLGCLVKGYFPEPVTLTWNSGSLSSGVHTFPAVLQSDLYTLSSSVTVTSSTWPSQSITCNVAHPASSTKVDKKIEPRGPTIKPCPPCKCPAPNLLGGPSVFIFPPKIKDVLMISLSPIVTCVVVDVSEDDPDVQISWFVNNVEVHTAQTQTHREDYNSTLRVVSALPIQHQDWMSGKEFKCKVNNKDLPAPIERTISKPKGSVRAPQVYVLPPPEEEMTKKQVTLTCMVTDFMPEDIYVEWTNNGKTELNYKNTEPVLDSDGSYFMYSKLRVEKKNWVERNSYSCSVVHEGLHNHHTTKSFSRTPGK
light: QSALTQPPSASGSPGHSVTISCTGTSSDVGQYSFVSWYQQYPGKAPKIIIYDVSKRSSGVPDRFFGSKSANTASLTVSGVQEEDEADYFCSSYGGSKYPWVFGGGTKLTVLGQPKSSPSVTLFPPSSEELETNKATLVCTITDFYPGVVTVDWKVDGTPVTQGMETTQPSKQSNNKYMASSYLTLTARAWERHSSYSCQVTHEGHTVEKSLSRADCS
- EC50 (read off the curve) [7]: ~0.3 µg/mL
- EC50 (read off the curve) [8]: ~0.8 µg/mL

B8: ch17C1(N31Q) mIgG1 Agly (antibody)
heavy: EVQLVQSGAEVKKPGESLKISCKAFGYSFTNFWIGWVRQVPGKGLEWVGIIYPGDSDTRYSPSFQGQVTISADKSIDTAYLQWGHLKASDSAMYFCARRGFWTGSQIEYWGQGTQVTVSSAKTTPPSVYPLAPGSAAQTNSMVTLGCLVKGYFPEPVTVTWNSGSLSSGVHTFPAVLQSDLYTLSSSVTVPSSTWPSETVTCNVAHPASSTKVDKKIVPRDCGCKPCICTVPEVSSVFIFPPKPKDVLTITLTPKVTCVVVDISKDDPEVQFSWFVDDVEVHTAQTQPREEQFQSTFRSVSELPIMHQDWLNGKEFKCRVNSAAFPAPIEKTISKTKGRPKAPQVYTIPPPKEQMAKDKVSLTCMITDFFPEDITVEWQWNGQPAENYKNTQPIMDTDGSYFVYSKLNVQKSNWEAGNTFTCSVLHEGLHNHHTEKSLSHSPGK
light: B7 light
notes: Aglycosylated Fc; also called ch17C1-mIgG1-Agly; ch17C1 Agly
- EC50 (read off the curve) [8]: ~0.9 µg/mL

B9: ch17C1(N31Q, I48V) mIgG2a (antibody, V domains shown)
VH: EVQLVQSGAEVKKPGESLKISCKAFGYSFTNFWIGWVRQVPGKGLEWVGIIYPGDSDTRYSPSFQGQVTISADKSIDTAYLQWGHLKASDSAMYFCARRGFWTGSQIEYWGQGTQVTVSS
VL: QSALTQPPSASGSPGHSVTISCTGTSSDVGQYSFVSWYQQYPGKAPKVIIYDVSKRSSGVPDRFFGSKSANTASLTVSGVQEEDEADYFCSSYGGSKYPWVFGGGTKLTVLG
notes: The sentence giving the chains names the antibody 'ch17C1(N31Q) mIgG2a' but lists the (N31Q, I48V) light chain
- EC50 (read off the curve) [7]: ~0.3 µg/mL

Other lines, results leading:

- EC50 [1]: 5.3 nM
- EC50 [2]: 3.8 nM
B1: recombinant human antibody NI-105.29G10 (germlined) (antibody, human IgG1, V domains shown)
VH: EVQLVESGGDLVQPGGSLRLSCAASGFDFSGYSMAWVRQAPGKGLEWVSYISGTYVSGGTGTMYYLDSVKGRFFISRDDATSSLYLQMDSLRDEDTAVYYCARVYDYGEDWGQGTLVTVSS
VL: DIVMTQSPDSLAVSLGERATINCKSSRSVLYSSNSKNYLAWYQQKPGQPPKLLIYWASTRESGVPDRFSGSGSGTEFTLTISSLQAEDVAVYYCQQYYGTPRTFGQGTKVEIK
notes: as for B4

- EC50 [3]: 2.4 nM
B2: recombinant human antibody NI-105.4E4 (antibody, V domains shown)
VH: B3 VH with Q30N
VL: LPVLTQPPSVSVSPGQTARISCFGDTLPKQYTYWYQQKPGQAPVLVIYKDTERPSGIPERFSGSSSGTTVTLTISGVQAEDEADYYCLSADNSATWVFGGGTKVTVL
modifications: Asn-30 of the VH carried an N-glycan when the chimeric ch4E4 was expressed in CHO cells; the letter is unchanged.
notes: Human antibody described in US 2012/0087861

- EC50 [3]: 1.4 nM
B5: recombinant human antibody NI-105.4A3 (antibody, V domains shown)
VH: EVQLVETGGGAVQPGGSLRLSCAASGFTFSDYAMHWVRQAPGKGLQWVAVISYEGTYKYYADSVKGRFTISRDNSKNTLNLQMSSLRVEDTAVYFCVKARAFASGQRSTSTVPDYWGQGTLVTVSS
VL: SYELTQPPSVSVSPGQTARITCSGDALPKKYAYWYQQKSGQAPVLVIYEDNKRPSGIPERFSGSSSGTVATLTISGAQVDDEADYYCYSTDISGDLRVFGGGTKLTVL
notes: Human antibody described in US 2012/0087861; used as cloned

- EC50 [1]: 4.7 nM
- EC50 [2]: 3.3 nM
B10: recombinant human antibody NI-105.17C1 (not germlined, as used in Table 7) (antibody, human IgG1, V domains shown)
VH: B9 VH with Q115L
VL: QSALTQPPSASGSPGHSVTISCTGTSSDVGNYSFVSWYQQYPGKAPKVIIYDVSKRSSGVPDRFFGSKSANTASLTVSGVQEEDEADYFCSSYGGSKYPWVFGGGTKLTVL
notes: Complete human IgG1 by the methods

- binding result [5]: no binding
B11: recombinant human antibody NI-105.40E8 (NI-105.40E8-hIgG1, germlined) (antibody, V domains shown)
VH: EVQLVESGGGLVQPGGSLRLSCAASGFTFPNYVMTWVRQAPGKGLEWVSGISGSGGSTDYADSVKGRFTISRDNSKNTLYLQMNSLRVEDTALYYCAKGSGGIRGQGTMVTVSS
VL: QSALTQPRSVSGSPGQSVTISCTGTSSDVGGYNYVSWHQQHPGKAPKLLIYDVTKRPSGVPDRFSGSKSGNTAALTISGLQAEDEADYYCHSYVGSYTLVFGGGTKLTVLG
notes: Heavy chain is human IgG1

- EC50 [9]: 6.6 nM
B12: recombinant human antibody NI-105.24B2 (antibody, V domains shown)
VH: EVQLVQSGAEVKKPGASVKVSCKASGYTFVNYIIHWVRQAPGQGLEWMGIINPNGGNTSYAEKFQARVTLTSDTSTSTVYMDLSSLTSEDTAVYYCAVLSPSNPWGQGTTVTVSS
VL: SYVLTQPPSVSVSPGQTAGITCSGDALPKQFVYWYQKKPGQAPVLLIYKDTERPSRIPERFSGSTSGTTVALTINGVQAEDEADYYCQSADRSGALWVFGGGTKLTVL
notes: as for B5
